Experimental findings from patent US20200330588A1 (ICAHN SCHOOL OF MEDICINE AT MOUNT SINAI, published 2020) are described below.

For test [1], the target named is gH alanine mutant 478-488 (label as in Table 6). The experiment in a line: flow cytometry, HEK293 cells transfected with gH alanine mutant and gL; % of gH-positive cells compared to WT.
Test [2] concerns the target T1, gH mutant 485-492 (consecutive alanine substitutions) transfected into HEK293 cells with gL (Human cytomegalovirus (consensus …)).
T1 construct: whole, on cells; also called 485-492 mutant; gH mutant 485-92
Described as above.

The target in test [3] is T2, gH alanine mutant 484-485 transfected into HEK293 cells with gL (Human cytomegalovirus (consensus …)).
T2 construct: whole, on cells
Described as above.

In test [4] the target is T3, gH mutant 480-486 (consecutive alanine substitutions) transfected into HEK293 cells with gL (Human cytomegalovirus (consensus …)).
T3 construct: whole, on cells; also called 480-486 mutant; gH mutant 480-86
The description is as above.

For test [5], the target named is T4, gH alanine mutant 486-487 transfected into HEK293 cells with gL (Human cytomegalovirus (consensus …)).
T4 construct: whole, on cells
The test is described as above.

For test [6], the target named is T5, gH alanine mutant 480-481 transfected into HEK293 cells with gL (Human cytomegalovirus (consensus …)).
T5 construct: whole, on cells
The test is described as above.

The target of test [7] is T6, gH alanine mutant 482-483 transfected into HEK293 cells with gL (Human cytomegalovirus (consensus …)).
T6 construct: whole, on cells
The test is described as above.

For test [8], the target named is T7, gH alanine mutant 490-491 transfected into HEK293 cells with gL (Human cytomegalovirus (consensus …)).
T7 construct: whole, on cells
The description is as above.

Test [9] addresses T8, gH alanine mutant 488-489 transfected into HEK293 cells with gL (Human cytomegalovirus (consensus …)).
T8 construct: whole, on cells
The test is described as above.

Test [10] concerns the target T9, HCMV glycoprotein gH, strain TB40/E (U373^gH cells, TB40/E-infected cells, virions) (Human cytomegalovirus strain TB40/E). Briefly: cell-based or functional assay.
Test [11] addresses HCMV glycoprotein gH, strain VHL/E (virions) (Human cytomegalovirus strain VHL/E). Briefly: cell-based or functional assay.
Test [12] addresses T9, HCMV glycoprotein gH, strain TB40/E …. Briefly: cell-based or functional assay. The source holds these as a separate data set.
Test [13] has as its target HCMV glycoprotein gH, strain AD169 (AD169IE2-YFP-infected MRC5 cells and virions) (Human cytomegalovirus strain AD169, UniProt P12824 24-743). Briefly: cell-based or functional assay.
For test [14], the target named is HCMV glycoprotein gH, strain DAVIS (virions) (Human cytomegalovirus strain DAVIS). The experiment in a line: cell-based or functional assay.
Test [15] deals with HCMV glycoprotein gH, strain TR (virions) (Human cytomegalovirus strain TR). Briefly: cell-based or functional assay.
Test [16] addresses T10, cyclic gH peptides (7, 10 and 13 aa libraries) spanning gH residues 485-493 (Human cytomegalovirus, cyclized with a thioether linkage between the N' and C' termini).
T10 construct: also called region spanning residues 485-493
The experiment in a line: cyclic peptide microarray (PEPperCHIP), anti-mouse DyLight680 detection.

B1: monoclonal antibody 10C10 (antibody, V domains shown)
VH: EVQLQQSGPELVKPGVSMRISCKASGFSFTDYTMNWVKQSHRKNLEWIGLVNPYNGGTSHNPNFKGKATLTVDKSSSTAYMELLSLTSEDSAVYYCARRGRRDYALDYWGQGTSVTVSS
VL: DIVLTQSPVTLSVTPGDSVSLSCRASQSVSNNLHWYQQKSHESPRLLIKYASQSISGIPSRFRGSGSGTDFTLSIISVETEDFGMYFCQQSNIWPHTFGAGTKLELKR
notes: also called mAb 10C10; 10C10^647 (Alexa Fluor 647 conjugate)
On to B1, for which the “Avg. binding (% of mass)” value in test [1] came out at 100%; in [2], 2%; in test [3], 3%; in test [4] it was 3%; in test [5], 2%; in [6], 70%. For the same molecule, the “Avg. binding (% of mass)” value was found to be 91% in test [7], 72% in test [8] and 98% in test [9]. Also, the “IC50, neutralization of TB40/E FLAG-YFP infection of ARPE-19 epithelial cells (YFP read-out)” value in test [10] worked out at 0.13 µg/mL. Also, in test [11], the “IC50, strain VHL/E, epithelial cells, α-IE staining” value was found to be 0.11 µg/mL. Also, the “IC50, strain VHL/E, fibroblasts, plaque assay” value in [11] came out at 0.24 µg/mL. The “IC50, strain VHL/E, fibroblasts, α-IE staining” value in test [11] was 0.24 µg/mL. For the same molecule, the “IC50, neutralization of TB40/E FLAG-YFP infection of fibroblasts (FLAG-YFP read-out)” value in [12] was determined as 0.38 µg/mL. Further, the “IC50, strain TB40/E, epithelial cells, α-IE staining” value in test [12] is 1.35 µg/mL. Moreover, the “IC50, strain TB40/E, fibroblasts, plaque assay” value in test [12] is 1.28 µg/mL. Besides, the “IC50, strain TB40/E, fibroblasts, α-IE staining” value in test [12] amounted to 4.18 µg/mL. The “IC50, neutralization of AD169IE2-YFP infection of fibroblasts (IE2-YFP read-out)” value in test [13] turned out to be 0.5 µg/mL. In addition, the “IC50, strain Davis, fibroblasts, plaque assay” value in [14] was determined as 0.37 µg/mL. The “IC50, strain TR, epithelial cells, α-IE staining” value in [15] was 0.44 µg/mL. For the same molecule, in test [15], the “IC50, strain TR, fibroblasts, plaque assay” value came out at 2.43 µg/mL. Also, the “IC50, strain TR, fibroblasts, α-IE staining” value in [15] was 2.34 µg/mL.

B2: monoclonal antibody 5C3 (antibody, V domains shown)
VH: QVQLQQPGAELVRPGASVKLSCKASGYTFTTYWMNWVKQRPGQGLEWIGMIDPSDSETHYNQMFKDKATLTVDTSSSTAYMQLSSLTSEDSAVYYCARGRSWFVYWGQGTLVTVSS
VL: DIVLTQSPASLAVSLGQRATISCRASKSVSSSGYSYVHWYQQKPGQPPKLLIYLASNLESGVPARFSGSGSGTDFTLNIHSVEEEDAATYYCQHNRELPYTFGGGTKLEIKR
notes: also called mAb 5C3; 5C3^647 (Alexa Fluor 647 conjugate)
In the case of B2, the “Avg. binding (% of mass)” value in [1] came to 100%; in [2] it was 49%; in test [3], 76%; in [4] it was 14%; in [5], 56%; in [6], 72%. The “Avg. binding (% of mass)” value in test [7] was determined as 85%; in [8], 92%; in test [9], 113%. Besides, in test [10], the “IC50, neutralization of TB40/E FLAG-YFP infection of ARPE-19 epithelial cells (YFP read-out)” value came out at 0.04 µg/mL. In test [16], this molecule showed a fold over background of roughly 3 fold. Also, the “IC50, strain VHL/E, epithelial cells, α-IE staining” value in [11] was found to be 0.11 µg/mL. The “IC50, strain VHL/E, fibroblasts, plaque assay” value in test [11] amounted to 0.02 µg/mL. The “IC50, strain VHL/E, fibroblasts, α-IE staining” value in test [11] worked out at 0.02 µg/mL. In addition, the “IC50, neutralization of TB40/E FLAG-YFP infection of fibroblasts (FLAG-YFP read-out)” value in test [12] was 0.07 µg/mL. Moreover, the “IC50, strain TB40/E, epithelial cells, α-IE staining” value in [12] was 0.96 µg/mL. Also, in [12], the “IC50, strain TB40/E, fibroblasts, plaque assay” value turned out to be 0.45 µg/mL. In addition, the “IC50, strain TB40/E, fibroblasts, α-IE staining” value in [12] was found to be 0.88 µg/mL. In addition, the “IC50, neutralization of AD169IE2-YFP infection of fibroblasts (IE2-YFP read-out)” value in [13] came out at 0.24 µg/mL. Further, the “IC50, strain Davis, fibroblasts, plaque assay” value in test [14] stood at 0.22 µg/mL. Besides, the “IC50, strain TR, epithelial cells, α-IE staining” value in test [15] came to 0.16 µg/mL. Moreover, the “IC50, strain TR, fibroblasts, plaque assay” value in [15] turned out to be 2.13 µg/mL. Moreover, the “IC50, strain TR, fibroblasts, α-IE staining” value in test [15] is 0.63 µg/mL.
